These results are taken from paper PMC3828642, “1-Aminocyclopropane-1-carboxylic acid oxidase reaction mechanism and putative post-translational activities of the ACCO protein” (AoB Plants, 2013).

As a reminder, the Km is the concentration of substrate that gives half-maximal velocity.

Substrate in the data set: NC1(C(=O)O)CC1
Nature of the data set: purified protein. As to conditions: Fe(II), ascorbate, bicarbonate active-site Fe(II); Arg175, Arg244 and Ser246 affect ACC binding.

B1: 1-aminocyclopropane-1-carboxylic acid oxidase (ACCO1) (Malus domestica) (protein)
chain: MATFPVVDLSLVNGEERAATLEKINDACENWGFFELVNHGMSTELLDTVEKMTKDHYKKTMEQRFKEMVAAKGLDDVQSEIHDLDWESTFFLRHLPSSNISEIPDLEEEYRKTMKEFAVELEKLAEKLLDLLCENLGLEKGYLKKVFYGSKGPNFGTKVSNYPPCPKPDLIKGLRAHSDAGGIILLFQDDKVSGLQLLKDGEWVDVPPMHHSIVINLGDQIEVITNGKYKSVMHRVIAQSDGTRMSIASFYNPGNDSFISPAPAVLEKKTEDAPTYPKFVFDDYMKLYSGLKFQAKEPRFEAMKAKESTPVATA
With B1, the Km is 51 µM.
